Experiments:
[1] = target: murine ALK (purified mouse ALK antigen) (Mus musculus, UniProt P97793); assay: Mouse ALK cross-reactivity, solid-state ELISA; format: binding; set-up: key: − none; + weak; ++ moderate; +++ strong; conditions: cross-reactivity with murine ALK
Procedure: Purified mAbs were evaluated for their ability to bind murine ALK by solid-state ELISA, or flow cytometry on Neuro-2a cells that express low levels of endogenous murine ALK. […]

NB1 cells [2] = assay: Crizotinib titration and co-titration with ALK antibodies, killing of NB1 cells; format: cell-based, human; conditions: for effect on the anti-proliferative effect of crizotinib: co-titration of crizotinib with the antibody
[3] = target: C-terminal region of human ALK ECD (T637-S1038) (Homo sapiens, UniProt Q9UM73); assay: Competitive binding assay (epitope binning) by flow cytometry; conditions: antibodies to the C-terminal region
Procedure: Antibodies that bind to the C-terminal region of human ALK ECD (T637-S1038) were further characterized using a competitive binding assay. A pairwise matrix approach was used whereby each antibody was fluorescently labeled and tested for its ability to bind to ALK-expressing cells pre-incubated with an unlabeled antibody. The ability of both antibodies to bind the C-terminal domain simultaneously was tested via flow cytometry. If both antibodies bound simultaneously, they were put into different bins and considered to belong to a separate epitope class.

[4] = test system: ALK (basal phosphorylation in NB1 cells); assay: Western blot of ALK phosphorylation in NB1 cells; format: cell-based, human; conditions: for ALK phosphorylation: effect in words
Procedure: Lysed cells were subjected to SDS-PAGE, transferred to nitrocellulose and immunoblotted with antibodies against total, and phospho-specific ALK, AKT, and MAPK. FIG. 4B depicts an ELISA of NB1 cells grown in media with reduced serum and treated with 30-100 nM of each antibody for 1-2 hours. Cell lysates were incubated on ELISA plates with an anti-ALK antibody, followed by incubation with a pan phosphotyrosine antibody coupled to HRP.
Cell lysates were subjected to SDS-PAGE and transferred to nitrocellulose. Immunoblotting was performed with antibodies against total, and phospho-specific ALK, AKT, and MAPK (purchased from Cell Signaling and utilized per manufacturer's instructions). HRP (horse radish peroxidase)-conjugated secondary antibodies (Thermo Scientific, Waltham, Mass.) were used along with Supersignal West Pico Chemiluminescent Substrate (Thermo Scientific, Waltham, Mass.) to image blots.
Anti-ALK monoclonal antibodies generated in Example 1 were evaluated via Western blotting for their ability to activate or inhibit basal levels of ALK phosphorylation in NB1 cells (FIG. 4A). A subset of ALK antibodies stimulated ALK tyrosine phosphorylation and a different subset of antibodies inhibited basal levels of ALK phosphorylation. See also Table 18, below. […] That is, ALK antibodies that stimulated ALK tyrosine phosphorylation increased MAPK and AKT phosphorylation, whereas ALK antibodies that inhibited ALK tyrosine phosphorylation decreased basal levels of MAPK and AKT phosphorylation (FIG. 4A). Similar results were obtained in ELISA-based ALK phosphorylation assays from lysates of NB1 cells treated with ALK antibodies (FIG. 4B).

[5] = test system: ALK (total protein levels in NB1 cells); assay: ALK turnover (total protein levels) by Western blot, 24 hour treatment of NB1 cells; format: cell-based, human; set-up: key: − none; + weak; ++ moderate; +++ strong
Description: FIG. 5 depicts a Western blot of a panel of ALK antibodies.
See also Table 18, below.

[6] = test system: patient-derived (PDX) neuroblastoma ALK F1174L tumor; assay: Patient-derived (PDX) neuroblastoma ALK F1174L tumor model; format: in vivo, mouse; conditions: two weekly intraperitoneal doses at 10 mg/kg, two-week period, in comparison with control IgG1
Description: (§1) FIGS. 8A-B depict the in vivo antitumor activity of the Ab326 anti-ALK antibody in a patient-derived (PDX) neuroblastoma ALK F1174L tumor model compared with control IgG1 (A) and a western blot of tumor homogenates harvested from the patient-derived tumor model showing relative levels of total ALK and phosphorylated ALK in Ab326-treated and control IgG1-treated mice (B). GAPDH is included in the western blot of FIG. 8B as a control for protein level.
Patient-derived (PDX) neuroblastoma tumor model mice were produced. […] Mice received two weekly intraperitoneal doses of Ab326 or a control IgG1 at 10 mg/kg.
(§2) The effect of Ab326, generated in Example 1, on the patient-derived NB tumor mouse model was consistent with its inhibitory effect on phosphorylation of ALK and downstream signaling (FIG. 8A). Tumor volume was reduced over a two-week period in comparison with a control IgG1 antibody.

[7] = test system: ALK on the surface of NB1 cells; assay: KD determination by flow cytometry on NB1 cells; format: binding; conditions: NB1 (human) cells, FACS, mean
Procedure: FIG. 3 depicts the apparent affinities (KD) of ALK antibodies for ALK expression on the surface of NB1 cells. KD was determined by flow cytometry. Titration of each antibody on NB1 cells for 2-4 hours at 4° C. was followed by incubation with a fluorescently-labeled secondary antibody. The normalized mean fluorescent intensity […] shown as “% Max binding” was plotted as a function of antibody concentration.
Flow cytometry was utilized to measure the affinity at steady state (KD) with which different ALK antibodies bind to ALK on the surface of NB1 cells (FIG. 3). Titration of each antibody on NB1 cells for 2-4 hours at 4° C. was followed by incubation with a fluorescently-labeled secondary antibody. The normalized mean fluorescent intensity (MFI) shown as “% Max binding” was plotted as a function of antibody concentration. The data were fit to a one site binding isotherm using GraphPad Prism, from which affinity values were derived.
(§3) Amino acid residues that differ between rat ALK and mouse ALK are boxed. KD values for both NB1 (human) cells and Neuro2a (mouse) cells were also determined.

NB1 cells [8] = assay: NB1 cell morphology; format: cell-based, human; conditions: NB1 cells treated with antibody
Description: By contrast, treatment with Ab324, an ALK agonist, caused the cells to spread out.

[9] = target: T1, cell surface mALK on Neuro2a cells (Mus musculus, UniProt P97793); assay: KD of humanized antibodies on Neuro2a (mouse) cells; format: binding; conditions: FACS, mean
T1 construct: Neuro-2a cells that express low levels of endogenous murine ALK; endogenous in cells; host or cells: Neuro-2a (Neuro2a) mouse neuroblastoma cells
Procedure: as §3

[10] = target: T2, total ALK and phosphorylated ALK in tumor homogenates (Homo sapiens, UniProt Q9UM73, F1174L); assay: Western blot of tumor homogenates from the PDX model; format: in vivo, mouse; conditions: tumors harvested 72 hours after the second dose, vs control IgG1
T2 construct: Western blot analysis of homogenates of tumors harvested 72 hours after the second dose; from tissue; host or cells: patient-derived (PDX) neuroblastoma tumors grown in mice
Description: as §1, §2

[11] = target: human ALK (hALK, purified ALK protein) (Homo sapiens, UniProt Q9UM73); assay: Monovalent affinity of humanized antibodies, BLitz System, human ALK; format: binding; conditions: for Kd: BLitz, purified ALK protein at 70 μg/mL, single binding site fit, antibody by plate position of Table 19; for potency estimated from few doses: single dose kinetics
Procedure: The humanized ALK antibodies designed in Example 1 were tested for monovalent affinity, wherein the kinetic data are fit to a single binding site equation to obtain relative affinity values.
(§4) Kinetic measurements of the monovalent affinity of the 96 humanized ALK antibody variants (Ab351-Ab446) were collected. Affinity ranking was performed using a BLitz® System (ForteBio, Menlo Park, Calif.). Humanized anti-ALK antibodies were immobilized at 0.5 mg/mL using Protein A tips. Once baseline stability was ensured, purified ALK proteins at 70 μg/mL were added. The resulting kinetic data were fit to a single binding site equation, from which the quoted monovalent KD values were derived.
as §3

mouse ALK (mALK) = target: T3, mouse ALK (mALK) (Mus musculus, UniProt P97793); assay: Monovalent affinity of humanized antibodies, BLitz System, mouse ALK; format: binding; conditions: single dose kinetics
T3 construct: mouse ALK (mALK)
Procedure: as §4, §3

T1 sequence (P97793 19-1621): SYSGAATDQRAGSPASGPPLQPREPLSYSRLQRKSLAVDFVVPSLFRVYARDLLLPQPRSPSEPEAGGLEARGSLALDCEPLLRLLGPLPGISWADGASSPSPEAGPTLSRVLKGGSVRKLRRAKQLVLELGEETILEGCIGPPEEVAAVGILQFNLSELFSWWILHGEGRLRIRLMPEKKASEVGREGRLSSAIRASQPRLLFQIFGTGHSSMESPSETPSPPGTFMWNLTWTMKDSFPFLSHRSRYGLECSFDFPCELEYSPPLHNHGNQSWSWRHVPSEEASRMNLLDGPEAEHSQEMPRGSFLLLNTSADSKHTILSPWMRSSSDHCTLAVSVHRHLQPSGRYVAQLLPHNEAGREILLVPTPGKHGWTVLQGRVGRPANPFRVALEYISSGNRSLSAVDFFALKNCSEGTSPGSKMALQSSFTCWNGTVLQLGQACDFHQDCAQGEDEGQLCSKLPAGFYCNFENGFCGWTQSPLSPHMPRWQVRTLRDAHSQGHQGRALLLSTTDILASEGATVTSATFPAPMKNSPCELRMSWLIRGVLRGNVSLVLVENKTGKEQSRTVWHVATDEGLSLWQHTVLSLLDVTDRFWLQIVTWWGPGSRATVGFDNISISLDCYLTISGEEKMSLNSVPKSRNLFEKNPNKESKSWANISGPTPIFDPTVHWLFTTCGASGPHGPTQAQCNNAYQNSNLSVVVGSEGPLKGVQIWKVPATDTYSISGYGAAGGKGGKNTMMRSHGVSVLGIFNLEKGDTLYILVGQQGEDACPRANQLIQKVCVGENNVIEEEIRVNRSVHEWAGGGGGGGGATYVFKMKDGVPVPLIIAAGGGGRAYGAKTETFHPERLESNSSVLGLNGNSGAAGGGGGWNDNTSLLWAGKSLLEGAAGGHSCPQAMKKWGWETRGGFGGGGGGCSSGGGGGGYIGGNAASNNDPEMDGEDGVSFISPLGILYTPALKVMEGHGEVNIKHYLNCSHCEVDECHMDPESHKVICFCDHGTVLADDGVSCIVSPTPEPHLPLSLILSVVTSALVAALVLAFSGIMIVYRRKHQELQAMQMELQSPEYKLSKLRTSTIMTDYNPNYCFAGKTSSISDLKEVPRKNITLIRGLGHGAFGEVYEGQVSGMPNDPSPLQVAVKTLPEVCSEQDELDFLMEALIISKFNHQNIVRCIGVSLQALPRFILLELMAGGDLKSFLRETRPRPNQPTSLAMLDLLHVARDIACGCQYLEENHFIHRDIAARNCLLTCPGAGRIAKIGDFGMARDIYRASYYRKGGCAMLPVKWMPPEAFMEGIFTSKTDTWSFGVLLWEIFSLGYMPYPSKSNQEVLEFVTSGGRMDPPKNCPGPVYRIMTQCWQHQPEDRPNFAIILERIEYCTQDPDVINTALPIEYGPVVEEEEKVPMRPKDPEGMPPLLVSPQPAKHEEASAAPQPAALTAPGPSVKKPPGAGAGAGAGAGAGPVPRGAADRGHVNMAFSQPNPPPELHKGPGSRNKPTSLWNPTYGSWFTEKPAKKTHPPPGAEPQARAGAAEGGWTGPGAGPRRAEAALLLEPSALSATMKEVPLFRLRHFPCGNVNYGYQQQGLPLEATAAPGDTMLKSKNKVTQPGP
Chain of murine ALK (purified mouse ALK antigen) (P97793 19-1042 limits assumed): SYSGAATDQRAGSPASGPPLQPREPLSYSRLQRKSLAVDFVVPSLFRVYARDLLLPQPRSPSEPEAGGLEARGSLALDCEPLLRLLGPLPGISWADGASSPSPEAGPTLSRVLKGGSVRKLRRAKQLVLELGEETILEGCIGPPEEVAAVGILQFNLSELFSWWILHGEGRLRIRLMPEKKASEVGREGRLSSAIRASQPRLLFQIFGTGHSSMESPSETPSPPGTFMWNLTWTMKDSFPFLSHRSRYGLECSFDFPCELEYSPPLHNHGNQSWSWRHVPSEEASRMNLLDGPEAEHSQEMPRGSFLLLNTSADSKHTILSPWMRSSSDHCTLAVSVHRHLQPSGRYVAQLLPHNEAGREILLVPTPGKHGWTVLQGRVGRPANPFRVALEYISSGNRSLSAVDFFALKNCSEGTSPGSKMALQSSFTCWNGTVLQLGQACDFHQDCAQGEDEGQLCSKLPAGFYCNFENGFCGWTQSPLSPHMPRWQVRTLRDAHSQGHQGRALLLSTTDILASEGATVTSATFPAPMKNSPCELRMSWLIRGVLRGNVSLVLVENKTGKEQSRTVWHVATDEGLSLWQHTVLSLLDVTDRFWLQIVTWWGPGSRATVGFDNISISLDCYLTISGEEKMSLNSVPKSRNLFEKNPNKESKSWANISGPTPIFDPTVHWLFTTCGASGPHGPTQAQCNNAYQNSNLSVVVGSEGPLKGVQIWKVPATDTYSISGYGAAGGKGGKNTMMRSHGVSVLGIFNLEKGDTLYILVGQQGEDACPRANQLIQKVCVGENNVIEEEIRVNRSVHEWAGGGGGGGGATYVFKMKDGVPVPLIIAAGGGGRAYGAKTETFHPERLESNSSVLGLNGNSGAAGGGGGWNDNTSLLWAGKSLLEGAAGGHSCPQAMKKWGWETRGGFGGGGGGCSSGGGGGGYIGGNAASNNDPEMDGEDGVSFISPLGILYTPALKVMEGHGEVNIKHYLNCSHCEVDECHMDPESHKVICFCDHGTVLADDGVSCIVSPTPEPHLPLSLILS
Chain of human ALK (hALK, purified ALK protein) (Q9UM73 with tags, fused parts or gaps): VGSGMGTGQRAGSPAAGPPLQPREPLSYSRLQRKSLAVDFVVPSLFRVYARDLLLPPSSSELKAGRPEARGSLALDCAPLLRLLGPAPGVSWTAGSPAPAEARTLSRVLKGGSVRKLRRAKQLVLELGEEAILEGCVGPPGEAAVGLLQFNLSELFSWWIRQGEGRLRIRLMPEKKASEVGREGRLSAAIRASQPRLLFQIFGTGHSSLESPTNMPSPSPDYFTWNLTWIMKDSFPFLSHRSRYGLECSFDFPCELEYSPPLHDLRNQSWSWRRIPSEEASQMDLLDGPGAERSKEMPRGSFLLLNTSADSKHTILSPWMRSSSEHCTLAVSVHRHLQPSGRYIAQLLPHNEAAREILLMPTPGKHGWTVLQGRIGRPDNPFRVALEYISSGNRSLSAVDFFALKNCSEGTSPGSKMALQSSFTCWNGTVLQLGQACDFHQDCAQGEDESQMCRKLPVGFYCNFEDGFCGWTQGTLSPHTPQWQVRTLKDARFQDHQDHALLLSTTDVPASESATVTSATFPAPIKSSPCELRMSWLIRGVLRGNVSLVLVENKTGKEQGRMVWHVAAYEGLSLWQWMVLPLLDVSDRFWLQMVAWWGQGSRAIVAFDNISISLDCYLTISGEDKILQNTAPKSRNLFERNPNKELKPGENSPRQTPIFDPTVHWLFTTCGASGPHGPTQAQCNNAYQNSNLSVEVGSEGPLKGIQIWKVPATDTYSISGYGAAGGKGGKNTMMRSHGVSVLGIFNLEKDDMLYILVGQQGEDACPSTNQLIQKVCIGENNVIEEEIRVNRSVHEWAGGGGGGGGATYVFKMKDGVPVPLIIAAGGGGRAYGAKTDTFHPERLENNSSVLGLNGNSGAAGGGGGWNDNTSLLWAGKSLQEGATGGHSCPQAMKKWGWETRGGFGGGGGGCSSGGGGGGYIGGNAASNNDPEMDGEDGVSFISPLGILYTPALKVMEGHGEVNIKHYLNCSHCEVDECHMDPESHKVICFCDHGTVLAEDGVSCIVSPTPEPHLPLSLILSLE
T3 sequence (P97793 19-1042): as the sequence (P97793 19-1042 limits assumed) above

mouse ALK binding [1] | Bin/Domain (bin) [3] | Kd [9] | phosphorylated ALK in tumor homogenates [10] | total ALK in tumor homogenates [10] | Kd [11] | potency estimated from few doses [11] | potency estimated from few doses (mouse ALK (mALK)) | Molecule | effect on NB1 cell death caused by crizotinib (NB1 cells [2]; constant amount of antibody added to crizotinib titration) | effect on ALK activity (ALK inhibitory or ALK agonistic antibody) [4] | ALK phosphorylation [4] | ALK turnover [5] | effect on the anti-proliferative effect of crizotinib (NB1 cells [2]) | tumor volume [6] | Kd [7] | NB1 cell morphology (NB1 cells [8])
 |  | 7.4 nM |  |  | 81.5 nM | 59 nM |  | Ab400: humanized anti-ALK antibody; VL SEQ ID NO: 425, VH SEQ ID NO: 430 (antibody, V domains shown, VH domain - Ab352; VL domain - Ab399) VH: EVQLVQSGPEVKKPGTSVKLSCKASGYTFTSYWMHWVRQARGQRLEWIGYIKPSSGYTKYNQKFKDRATLTADKSTSTAYMELSSLRSEDTAVYYCARDYYGSSSWFAYWGQGTLVTVSS VL: EIVMTQSQATMSTSVGERATLSCKASQNVGTNVAWYQQKPGQSPKALIYSASYRYSGVPARFSGSGSGTDFTLTISSVEPEDFAVYYCQQYNSYPYMYTFGQGTKLEIK |  |  |  |  |  |  | 1.3 nM | 
 |  | 2.8 nM |  |  | 87.6 nM | 71 nM | 147 nM | Ab402: humanized anti-ALK antibody; VL SEQ ID NO: 425, VH SEQ ID NO: 432 (antibody, V domains shown, VH domain - Ab354; VL domain - Ab399) VH: EVQLVQSGAEVKKPGTSVKLSCKASGYTFTSYWMHWVRQARGQRLEWIGYIKPSSGYTKYAQKFQERVTLTADKSTSTAYMELSSLRSEDTAVYYCARDYYGSSSWFAYWGQGTLVTVSS VL: EIVMTQSQATMSTSVGERATLSCKASQNVGTNVAWYQQKPGQSPKALIYSASYRYSGVPARFSGSGSGTDFTLTISSVEPEDFAVYYCQQYNSYPYMYTFGQGTKLEIK |  |  |  |  |  |  | 1.5 nM | 
 |  | 4.15 nM |  |  | 94.2 nM | 80 nM | 120 nM | Ab403: humanized anti-ALK antibody; VL SEQ ID NO: 425, VH SEQ ID NO: 433 (antibody, V domains shown, VH domain - Ab355; VL domain - Ab399) VH: QVQLVQSGAEVAKPGASVKLSCKASGYTFTSYWMHWVKQAPGQGLEWIGYIKPSSGYTKYNQKFKDKATLTADKSTSTAYMELRSLRSDDTAVYYCARDYYGSSSWFAYWGQGTLVTVSS VL: EIVMTQSQATMSTSVGERATLSCKASQNVGTNVAWYQQKPGQSPKALIYSASYRYSGVPARFSGSGSGTDFTLTISSVEPEDFAVYYCQQYNSYPYMYTFGQGTKLEIK |  |  |  |  |  |  | 0.73 nM | 

More lines, now with the values behind:

Molecule | mouse ALK binding [1] | Bin/Domain (bin) [3] | Kd [9] | phosphorylated ALK in tumor homogenates [10] | total ALK in tumor homogenates [10] | Kd [11] | potency estimated from few doses [11] | potency estimated from few doses (mouse ALK (mALK)) | effect on NB1 cell death caused by crizotinib (NB1 cells [2]; constant amount of antibody added to crizotinib titration) | effect on ALK activity (ALK inhibitory or ALK agonistic antibody) [4] | ALK phosphorylation [4] | ALK turnover [5] | effect on the anti-proliferative effect of crizotinib (NB1 cells [2]) | tumor volume [6] | Kd [7] | NB1 cell morphology (NB1 cells [8])
Ab323: anti-ALK monoclonal antibody; VL SEQ ID NO: 401, VH SEQ ID NO: 402 (antibody, V domains shown, VH domain - Ab323; VL domain - Ab323) VH: QVQLQQSGAELVKPGASVKISCKTSGYTFSNYWMNWVKQRPGKGLEWIGQIFPGDADANYNGKFKGKATLTADKSSSAAFMQLSSLTSEDSAVYFCARFSYDGAFAYWGQGTLVTVS VL: DIVMTQSHKFMSTSVGDRVSITCKASQDVSTAVAWYQQKPGQSPKPLIYWASTRHTGVPDRFTGSGSGTDYTLTISSVQTEDLALYYCQQHYSTPRTFGGGTKLEIKR | +++ | 1 |  |  |  |  |  |  | partially rescued | agonistic | weak agonist | ++ |  |  |  | 
Ab326: anti-ALK monoclonal antibody; VL SEQ ID NO: 407, VH SEQ ID NO: 408 (antibody, V domains shown, VH domain - Ab326; VL domain - Ab326) VH: QVQLQQSGAELAKPGASVKLSCKASGYTFTSYWMHWVKQRPGQGLEWIGYIKPSSGYTKYNQKFKDKATLTADKSSSTAYMQLSSLTYEDSAVYYCARDYYGSSSWFAYWGQGTLVTVSA VL: DIVMTQSQRFMSTSVGDRVSVTCKASQNVGTNVAWYQQKPGQSPKALIYSASYRYSGVPDRFTGSGSGTDFTLTISNVQSEDLAEYFCQQYNSYPYMYTFGGGTKLEIKR | +++ | 2 | 0.58 nM | reduction | reduction |  |  |  |  | inhibitory | inhibitor | − | enhanced | reduced | 0.94 nM | rounded morphology
Ab327: anti-ALK monoclonal antibody; VL SEQ ID NO: 409, VH SEQ ID NO: 410 (antibody, V domains shown, VH domain - Ab327; VL domain - Ab327) VH: DVKLVESGEGLVKPGGSLKLSCAASGFTFSSYAMSWVRQTPEKRLEWVTYISSGGDYIYYADTVKGRFTISRDNARNTLYLQMSSLKSEDTAMYYCTRERIWLRRFFDVWGTGTTVTVSS VL: DIVMTQSQKFMSTSVGDRVSITCKASQNVGTAVAWYQLKPGQSPKLLIYSASNRFTGVPDRFTGSGSGTDFTLTISNMQSEDLADYFCQQYSSYPLTFGSGTKLEIKR | +++ | 2 |  |  |  |  |  |  |  | inhibitory | inhibitor | ++ | enhanced |  |  | 
